The record followed here is US20190309025A1.

Assay [1] has as its target BzHuKD VLPs (Zika virus BPH2015 VLPs with E106/107 GL to KD, expressed by plasmid pEBZHu2-3 KD) (Zika virus strain BPH2015). Put plainly: ratio of antibody end-point titers on wt and KD VLPs.
The target in assay [2] is MR766KD VLPs (Zika virus MR766 VLPs with E106/107 GL to KD, expressed by plasmid pEZMRprME KD) (Zika virus strain MR766) (UniProt Q32ZE1). Described as above.
The target in assay [3] is BzHuwt VLPs (Zika virus BPH2015 prM and E VLPs expressed by plasmid pEBZHu2-3, pr1-Ala deletion clone) (Zika virus strain BPH2015). Put plainly: antibody end-point titration on VLPs (COS-1 supernatant).
The target of assay [4] is MR766wt VLPs (Zika virus MR766 prM and E virus-like particles expressed by plasmid pEZMRprME1-8) (Zika virus strain MR766) (UniProt Q32ZE1). Described as above.

As to “flavivirus group-cross reactive murine monoclonal antibody 4G2”, the Fold changes (BzHuwt VLPs against BzHuKD VLPs) in assay [1] is greater than 729 fold. For the same substance, the Fold changes (MR766wt VLPs against MR766KD VLPs) in assay [2] was greater than 2190 fold. Further, the Antibody end-point titers is 729000 in assay [3] and greater than 2.19e+06 in assay [4].
